Measured values as given in article PMC2631437 (Molecular microbiology, 2008).

Key:
Assay in all cases: EMSA
[1] = target: T1, MotA K59E (bacteriophage T4, UniProt P22915 1-211, K59E)
T1 sequence: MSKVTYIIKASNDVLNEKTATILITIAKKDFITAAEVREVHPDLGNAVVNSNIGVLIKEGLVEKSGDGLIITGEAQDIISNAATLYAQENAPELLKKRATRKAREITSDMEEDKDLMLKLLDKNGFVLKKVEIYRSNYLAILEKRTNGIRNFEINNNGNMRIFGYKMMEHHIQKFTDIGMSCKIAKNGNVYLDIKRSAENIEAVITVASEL

[2] = target: T2, MotA Q76R (bacteriophage T4, UniProt P22915 1-211, Q76R)
T2 sequence: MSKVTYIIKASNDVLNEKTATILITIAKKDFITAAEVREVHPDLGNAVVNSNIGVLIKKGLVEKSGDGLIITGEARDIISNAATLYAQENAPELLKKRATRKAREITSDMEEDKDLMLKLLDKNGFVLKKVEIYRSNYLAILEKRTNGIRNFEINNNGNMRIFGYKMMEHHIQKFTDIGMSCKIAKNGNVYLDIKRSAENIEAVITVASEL

[3] = target: T3, MotA K3E (bacteriophage T4, UniProt P22915 1-211, K3E)
T3 sequence: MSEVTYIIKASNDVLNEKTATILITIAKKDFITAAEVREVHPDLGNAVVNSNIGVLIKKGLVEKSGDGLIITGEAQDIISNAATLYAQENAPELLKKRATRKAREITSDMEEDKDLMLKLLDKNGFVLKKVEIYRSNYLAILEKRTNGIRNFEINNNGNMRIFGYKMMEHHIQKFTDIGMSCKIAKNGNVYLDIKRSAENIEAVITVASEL

[4] = target: T4, MotA S80R (bacteriophage T4, UniProt P22915 1-211, S80R)
T4 sequence: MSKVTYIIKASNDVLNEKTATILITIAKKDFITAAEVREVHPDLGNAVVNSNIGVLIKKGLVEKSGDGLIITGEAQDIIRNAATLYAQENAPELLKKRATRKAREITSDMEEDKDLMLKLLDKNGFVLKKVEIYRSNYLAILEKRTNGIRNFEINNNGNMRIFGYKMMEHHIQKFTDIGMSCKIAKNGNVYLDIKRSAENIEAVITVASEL

[5] = target: T5, MotA K28E (bacteriophage T4, UniProt P22915 1-211, K28E)
T5 sequence: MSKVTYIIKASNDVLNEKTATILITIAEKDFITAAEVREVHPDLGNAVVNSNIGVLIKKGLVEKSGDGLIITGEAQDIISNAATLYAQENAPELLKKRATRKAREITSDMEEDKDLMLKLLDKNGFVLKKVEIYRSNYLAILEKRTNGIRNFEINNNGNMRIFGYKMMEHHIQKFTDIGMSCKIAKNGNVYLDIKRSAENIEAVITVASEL

[6] = target: T6, MotA D43K (bacteriophage T4, UniProt P22915 1-211, D43K)
T6 sequence: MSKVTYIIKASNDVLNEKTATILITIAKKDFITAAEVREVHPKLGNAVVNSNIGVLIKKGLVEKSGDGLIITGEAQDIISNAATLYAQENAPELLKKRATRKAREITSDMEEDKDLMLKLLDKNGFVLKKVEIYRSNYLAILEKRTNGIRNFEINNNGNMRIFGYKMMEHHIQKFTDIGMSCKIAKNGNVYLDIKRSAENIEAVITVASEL

B1: 21 bp MotA box DNA (dsDNA)
DNA 1: GAATTATTTGCTTTAGATTAC
DNA 2: GTAATCTAAAGCAAATAATTC
Work on B1 yielded a Kd [1] of roughly 500 nM, a Kd [2] of roughly 600 nM and a Kd [3] of roughly 500 nM. The Kd [4] was roughly 600 nM, the Kd [5] was roughly 500 nM and the Kd [6] was roughly 500 nM.
